The results in this text go back to US20250304700A1, “ANTI-BLOOD DENDRITIC CELL ANTIGEN 2 ANTIBODIES AND USES THEREOF” (Biogen MA Inc., priority 2012, published 2025).

In test [1] the test system is CD62L on the surface of human pDCs. The test can be described thus: CD62L surface expression on pDCs by flow cytometry. It is filed as cell-based. The settings on record: PBMC pre-treated 30 minutes, then 10 μg/mL BIIB059 for 1 hour. How it is done:
The MFI of CD62L was determined by gating on pDCs as defined by CD14−, CD20−, HLA-DR+ and CD123+.
Metalloproteinase are known to induce CD62L shedding from the surface of immune cells. […] The surface expression of CD62L was assayed by flow cytometry. GM6001 inhibited the BIIB059-mediated down-modulation CD62L in a dose dependent manner (FIG. 45).
Background: A flow cytometer gives signals particle by particle.

The target in a further test is T1, surface human BDCA2 (Homo sapiens, UniProt Q8WTT0).
T1 construct: stably transfected DG44 CHO cells co-expressing full-length BDCA2 and FcεRIγcDNAs (human or cynomolgus monkey); expressed in transfected cells
T1 sequence (Q8WTT0 1-213): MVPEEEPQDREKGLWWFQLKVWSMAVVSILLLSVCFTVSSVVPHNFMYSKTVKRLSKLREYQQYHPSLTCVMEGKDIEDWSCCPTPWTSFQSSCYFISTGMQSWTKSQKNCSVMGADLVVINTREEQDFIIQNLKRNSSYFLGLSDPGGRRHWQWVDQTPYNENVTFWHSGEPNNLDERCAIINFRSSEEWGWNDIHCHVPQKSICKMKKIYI
T1 sequence (P30273 19-86 partner): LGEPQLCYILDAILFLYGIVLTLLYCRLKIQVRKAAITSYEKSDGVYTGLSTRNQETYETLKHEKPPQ
The test can be described thus: Direct binding dilution titration FACS on surface human BDCA2. The settings on record: transfected cells co-expressing BDCA2 and FcεRIγ. How it is done:
Expression vectors (ch24F4 heavy chain vectors pYL670 or pYL672 and ch24F4 light chain vector pYL671) were co-transfected into 293-EBNA cells and transfected cells were tested for antibody secretion and specificity (empty vector- and a molecularly cloned irrelevant mAb vector-transfected cells served as controls). […] Direct FACS binding to surface human BDCA2 confirmed the specificity of ch24F4. The EC50 binding of both variants of ch24F4 was equivalent to that of the murine 24F4 mAb by direct binding to surface expressed human BDCA2 by dilution titration FACS assay. Stable CHO cell lines secreting ch24F4-huIgG1, kappa mAb and agly ch24F4-huIgG4/G1 hybrid kappa mAb were produced by co-transfection with pYL672/pYL671 and pYL670/pYL671, respectively.
Site-directed mutagenesis was performed using Agilent's QuikChange II mutagenesis kit following the manufacturer's recommended protocol. The C95S variant was constructed using the mutagenic primer 5′ GCAACCTATTACTGTCAACAAAGTAATGAGGATCCTCGGAC 3′ (SEQ ID NO: 38) and its reverse complement, which introduced a new HincII site, producing plasmid pEAG2678. The C95T variant was constructed using the mutagenic primer 5′ CAACCTATTACTGTCAGCAAACTAATGAAGATCCTCGGACGTTCG 3′ (SEQ ID NO: 39) and its reverse complement, which removed a BamHI site, producing plasmid pEAG2679. […]

The target of another test is T2, human BDCA2 ectodomain (Homo sapiens, UniProt Q8WTT0).
T2 construct: huBDCA2 ectodomain: residues 257-425 above (underlined); murine IgG2a Fc (with G4S linker) (N, cleaved yes); made in house
T2 sequence (Q8WTT0 45-213): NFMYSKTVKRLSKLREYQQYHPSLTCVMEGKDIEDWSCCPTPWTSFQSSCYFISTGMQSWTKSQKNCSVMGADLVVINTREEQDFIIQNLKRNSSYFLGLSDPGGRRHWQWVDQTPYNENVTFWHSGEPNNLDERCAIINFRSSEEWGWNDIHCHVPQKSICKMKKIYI
The test can be described thus: Octet binding of mAbs on anti-human Fc tips to monomeric huBDCA2. The settings on record: Example 5, conditioned medium, hu24F4 variants. How it is done:
Site-directed mutagenesis was performed using Agilent's QuikChange II mutagenesis kit following the manufacturer's recommended protocol. The C95S variant was constructed using the mutagenic primer 5′ GCAACCTATTACTGTCAACAAAGTAATGAGGATCCTCGGAC 3′ (SEQ ID NO: 38) and its reverse complement, which introduced a new HincII site, producing plasmid pEAG2678. The C95T variant was constructed using the mutagenic primer 5′ CAACCTATTACTGTCAGCAAACTAATGAAGATCCTCGGACGTTCG 3′ (SEQ ID NO: 39) and its reverse complement, which removed a BamHI site, producing plasmid pEAG2679. Mutated plasmids were identified by screening for the introduced restriction site changes. The full-length light chain cDNA sequences in the resultant plasmids were confirmed by DNA sequencing. Wildtype ch24F4 and the C95S and C95T variant mAbs were expressed transiently in 293E cells by co-transfection of pYL672 and pYL671, pEAG2678 or pEAG2679. Conditioned medium was harvested at 2 days post-transfection. Titers (assayed by Octet on anti-human Fc tips) of both variants were similar to that of wildtype ch24F4, and Western blots of nonreducing SDS-PAGE indicated no gross aggregation or obvious clipping relative to wildtype ch24F4 mAb. […] Conditioned medium containing ch24F4 and the C95 variant mAbs was assayed by Octet for binding to human BDCA2 ectodomain. Antibodies from conditioned medium from transiently transfected cells were bound to anti-human Fc tips, then monomeric huBDCA2 was flowed over the Octet tips, to examine binding and dissociation.
Conditioned medium containing ch24F4 and all hu24F4 variant mAbs was assayed by Octet for binding to human BDCA2 ectodomain. The monomeric huBDCA2 ectodomain was prepared by proteolytic cleavage from the purified muIgG2a Fc-huBDCA2 fusion protein (relevant plasmid: pEAG2423). Antibodies from conditioned medium from transiently transfected cells were bound to anti-human Fc tips, and then monomeric huBDCA2 was flowed over the Octet tips, to examine binding and dissociation.
To explore the possibility of enhancing hu24F4 affinity by substitution at the position of the 24F4 version L1 CDR L3 unpaired cysteine (C95S in hu24F4 light chain expression vector pYL740), a number of version L1 variants were constructed by site-directed mutagenesis. Backmutation to the unpaired cysteine, i.e., S95C, was constructed by site-directed mutagenesis producing plasmid pYL749. Variants S95T, S95A, and S95V were constructed by site-directed mutagenesis producing plasmids pYL750, pYL751, and pYL752, respectively. The full-length light chain cDNA sequences in the resultant plasmids were confirmed by DNA sequencing. C95 variant hu24F4 mAbs were expressed transiently in 293E cells by co-transfection of hu24F4 H4 heavy chain pYL746 or hu24F4 H5 heavy chain pYL747 with hu24F4 L1 variant light chains C95S pYL740, S95C pYL749, S95T pYL750, S95A pYL751 or S95V pYL752 plasmids. Conditioned medium was harvested at 2 days post-transfection. Titers (assayed by Octet on anti-human Fc tips) of all variants were similar, and Western blots of nonreducing SDS-PAGE indicated no gross aggregation or obvious clipping. Conditioned medium containing the C95 variant mAbs was assayed by Octet for binding to human BDCA2 ectodomain. Antibodies from conditioned medium from transiently transfected cells were bound to anti-human Fc tips, then monomeric huBDCA2 was flowed over the Octet tips, to examine binding and dissociation. C95A variants had the slowest off-rates.
A general note: Biolayer interferometry detects binding as a change in optical thickness at a sensor tip.

Changes are numbered by the printed parent chain.

On to `CNC(=O)[C@H](Cc1c[nH]c2ccccc12)NC(=O)[C@@H](CC(=O)NO)CC(C)C` [GM6001, reference compound], for which the “BIIB059-mediated down-modulation of CD62L” value in test [1] is reported as “inhibited”.

B1: H5/L1: hu24F4 variant, heavy chain version H5 (SEQ ID NO: 49), light chain version L1 (antibody, V domains shown)
VH: DVQLVQSGGGLVKPGGSLRLSCAASGFTFSTYTMSWVRQAPGKGLEWVATISPGDSFGYYYPDSVQGRFTISRDNAKNSLYLQMNRLRAEDTAVYYCTRDIYYNYGAWFAYWGRGTLVTVSS
VL: DIQLTQSPSSLSASVGDRVTITCKASQSVDYDGDSYMNWYQQKPGKAPKLLIYAASTLESGVPSRFSGSGSGTDFTLTISSLQPEDFATYYCQQSNEDPRTFGQGTKVEIK
With B1, the “direct binding to surface human BDCA2, in words” value with surface human BDCA2 is listed as ““best” variants”.

B2: H2/L1: hu24F4 variant, heavy chain version H2 (SEQ ID NO: 44), light chain version L1 (antibody, V domains shown)
VH: EVQLVESGGGLVKPGGSLRLSCAASGFTFSTYTMSWVRQAPGKGLEWVSTISPGDSSTIYYADSVKGRFTISRDNAKNSLYLQMNSLRAEDTAVYYCARDIYYNYGAWFAYWGQGTLVTVSS
VL: B1 VL
As usually defined, the kon is the second-order rate constant of association. Read a low kon as slow association. For the molecule B2, in the test with human BDCA2 ectodomain, the “kdis” value is 3.35e-06 s⁻¹ and the “kon” value turned out to be 100000 M⁻¹ s⁻¹.

B3: H6/L0: hu24F4 variant, heavy chain version H6 (SEQ ID NO: 52), light chain version L0 (SEQ ID NO: 54) (antibody, V domains shown)
VH: B1 VH with Q6E, P53G, D55N, S56N, F57Y, Y60S, Q66K, R86S, R114Q
VL: B1 VL with D1A
Turning to B3, in the test with human BDCA2 ectodomain, the “kdis” value is 0.00137 s⁻¹ and the “kon” value was 273000 M⁻¹ s⁻¹.

B4: H0/L1: hu24F4 variant, heavy chain version H0 (SEQ ID NO: 40), light chain version L1 (SEQ ID NO: 56) (antibody, V domains shown)
VH: EVQLVESGGGLVKPGGSLRLSCAASGFTFSTYTMSWVRQAPGKGLEWVSAISGSGGSTYYADSVKGRFTISRDNAKNSLYLQMNSLRAEDTAVYYCARDIYYNYGAWFAYWGQGTLVTVSS
VL: B1 VL
For the molecule B4, in the test with human BDCA2 ectodomain, the “kdis” value is 9.5e-06 s⁻¹ and the “kon” value was determined as 100000 M⁻¹ s⁻¹.

B5: H3/L1: hu24F4 variant, heavy chain version H3 (SEQ ID NO: 46), light chain version L1 (antibody, V domains shown)
VH: B2 VH with S57F, T58G, I59Y, A62P, K66Q
VL: B1 VL
Turning to B5, in the test with human BDCA2 ectodomain, the “kdis” value amounted to 0.00586 s⁻¹ and the “kon” value amounted to 452000 M⁻¹ s⁻¹.

B6: H1/L1: hu24F4 variant, heavy chain version H1 (SEQ ID NO: 42), light chain version L1 (antibody, V domains shown)
VH: B4 VH with A50T, G53P, S54G, G55D, G56S, S57F, T58G, A61P
VL: B1 VL
Consider B6, for which, in the test with human BDCA2 ectodomain, the “kdis” value worked out at 5.03e-06 s⁻¹ and the “kon” value is 100000 M⁻¹ s⁻¹.
